Assays:
[1] = target: T1, PD-L1 (Fc Tag) (human, UniProt Q9NZQ7 19-239, limits assumed); experiment: competition ELISA, PD-L1 (Fc Tag) coated, human PD-1 at 6 ug/mL as competitor, anti-human IgG-Fc-HRP detection
T1 construct: also called human PD-L1; not shown: Fc tag
Description: (§1) The ability of hAAG5D8 to compete with PD-1 to bind to PD-L1 was tested by ELISA. PD-L1 (Fc Tag) was diluted to 1 μg/mL with a coating buffer (6 mM Na₂CO₃, 14 mM NaHCO₃), and then added 100 μL to each well followed by overnight incubation at 4° C. The plate was then washed with PBST, and added with 250 μL of a blocking solution (3% BSA/PBST) to each well to block for 2 h at 25° C. Afterwards, the plate was washed with PBST and added with 50 μL of human PD-1 at a concentration of 6 μg/mL as well as 50 μL of a gradiently diluted hAAG5D8 solution (at a concentration of 8000 ng/mL, 2000 ng/mL, 500 ng/mL, 250 ng/mL, 125 ng/mL, 62.5 ng/mL, 31.25 ng/mL, 6.25 ng/mL, or 1.25 ng/mL) to each well followed by mixing well and incubation at 25° C. for 2 h. Next, the plate was washed with PBST and added with 100 μL of an enzyme-labeled secondary antibody (goat anti-human IgG-Fc-HRP diluted 1:5000) to each well, followed by incubation at 25° C. for 1 h. Finally, color development was performed and values were read at 450 nm. A four-parameter equation was used for curve fitting to calculate the EC₅₀ value.
(§2) Results and conclusions: EC₅₀ value and the competitive binding curve of hAAG5D8 competitively binding to human PD-L1 are shown in Table 8 and FIG. 2, respectively.

[2] = target: T2, human PD-L1 (R&D company), immobilized on Ni-NTA probe (human, UniProt Q9NZQ7 19-239); experiment: BLI, PD-L1 immobilized on Ni-NTA probe, hAAG5D8 at 100, 50 and 25 nM in solution
T2 construct: Bought protein; also called PD-L1 solution; not shown: His tag only implied by capture on the Ni-NTA probe
T2 sequence (Q9NZQ7 19-239): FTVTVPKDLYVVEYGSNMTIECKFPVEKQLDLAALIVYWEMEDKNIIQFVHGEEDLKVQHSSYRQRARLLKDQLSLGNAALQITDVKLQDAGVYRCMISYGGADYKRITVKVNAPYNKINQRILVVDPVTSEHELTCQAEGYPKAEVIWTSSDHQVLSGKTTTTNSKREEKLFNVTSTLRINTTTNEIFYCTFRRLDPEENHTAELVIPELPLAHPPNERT
Description: The affinity of hAAG5D8 to human PD-L1 was detected using biolayer interferometry (BLI). The wells in A-D columns 1, 3, and 5 of a black 96-well plate were added with a PBS solution as baseline 1, baseline 2 and a dissociation solution, respectively. The wells in column 2 were added with a PD-L1 solution (R&D company), in column 4 with a hAAG5D8 solution (The concentrations were as follows: 100 nM, 50 nM, 25 nM, and 0 nM), in column 10 with an imidazole solution, in column 11 with water, and in column 12 with a nickel sulfate solution. Ni-NTA probe (Fortebio) was employed in the experiment. First, the probe was dipped in A-D column 1 for 180 seconds to stabilize the baseline. The Ni-NTA probe was then dipped in A-D column 2 for 300 seconds to immobilize PD-L1 on the probe. The Ni-NTA probe was then dipped in A-D column 3 for 120 seconds to stabilize the baseline. The Ni-NTA probe was then dipped in A-D column 4 for 600 seconds to allow the binding of hAAG5D8 with a different concentration to the immobilized PD-L1 protein on the probe. The Ni-NTA probe was then dipped in A-D column 5 for 600 seconds to allow the antibody to dissociate spontaneously. Finally, the Ni-NTA probe was dipped in A-D columns 10, 11, and 12 successively to force the immobilized PD-L1 dissociating from the probe. […]

[3] = target: T1, PD-L1 (Fc Tag); experiment: competition ELISA, PD-L1 (Fc Tag) coated, human PD-1 at a fixed concentration as the competing ligand, hAAG5D8 titrated
Description: as §1, §2

T1 sequence (Q9NZQ7 19-239 limits assumed): as the sequence (Q9NZQ7 19-239) above

EC50 [1]: 0.716 nM
Kd [2]: 0.0762 nM
IC50 (read off the curve) [3]: ~0.1 µg/mL
B1: anti-PD-L1 humanized antibody hAAG5D8 (antibody, human IgG1, kappa, V domains shown)
VH: QVQLQESGPGLVKPSETLSLTCTVSGFSLSRYSVHWIRQPPGKGLEWLGMIWGVGTTDYNSALKSRLTISKDTSKNQFSLKLSSVTAADTAVYYCARNWGTADYFDYWGQGTTVTVSS
VL: DIVLTQSPASLAVSPGQRATITCRASKSVHTSGYSYMHWYQQKPGQPPKLLIYLASNLESGVPARFSGSGSGTDFTLTINPVEANDTANYYCQHSGELPYTFGGGTKVEIKR
notes: Humanized from murine mAAG5D8 on a human IgG1 framework; also called anti-PD-L1 antibody

From patent publication US20220177590A1 (REMEGEN, published 2022)
